# Test results taken from patent US20240002497A1 (Merck Sharp & Dohme, published 2024).
# B1: F0103275B05 (VHH)
# VHH: EVQLVESGGGLVQPGGSLRLSCAASGSIFNINSMAWYRRAPGKQRELVASSTNGGSTNYADSVKGRFTISRDNAKRVYLQMNSLTPEDTAVYYCNALLQPSIYDISRTYWGQGTLVTVSS
# notes: entry includes the FLAG-HIS6 tag; also called F0103275B05 (parental)-FLAG-HIS6
# What was measured:
# huNav157chim5 + β1-β2-β3 = target: T1, huNav157chim5 + β1-β2-β3 (human); test: FACS, transiently transfected HEK293T cells
# T1 construct: DI, DII, DIII from Nav1.5α, DIV from Nav1.7α; also called huNav157 chimera 5
# Method: (§1) Binding of the ISVDs to cell-expressed Nav1.7α was detected via murine anti-Flag (Sigma, catalog #F1804). Briefly, cells were resuspended in FACS buffer (PBS, 10% FBS, NaN₃) and transferred to a 96-well V-bottom plate at 1×10^5 cells/well. Purified FLAG3-tagged ISVD was diluted in FACS buffer and added to the cells for 30 minutes at 4° C. […] Prior to the read-out, the samples were resuspended in 1 μg/mL propidium iodide (Sigma, catalog #P4170) to exclude dead cells. Between each step, the cells were centrifuged for 5 minutes at 200 grams and washed with 100 μL/well FACS buffer.
# (§2) FACS binding studies (as described above) were performed on HEK293T cells transiently transfected with expression vectors encoding a huNav1.7α or rhNav1.7α fused at the C-terminus via a P2A viral peptide linker to a single polypeptide encoding sodium channel beta subunits Navβ1, Navβ2, and Navβ3 in tandem (β1-β2-β3; SEQ ID NO:21). Similarly, HEK293T cells transiently transfected with expression vectors encoding chimeric variants of huNav1.7α in which individual domains are replaced by their huNav1.5α counterparts (chimeras 1 to 4 in FIG. 16) or with chimeric variants of huNav1.5 in which individual domains are replaced by their huNav1.7α counterparts (chimeras 5 to 8 in FIG. 16) fused at the C-terminus via a P2A viral peptide linker to β1-β2-β3 as above. See Table 7 for description of the expression vectors encoding the chimeras, Table 21 and FIG. 16).
# huNav157chim4 + β1-β2-β3 = target: T2, huNav157chim4 + β1-β2-β3 (human, UniProt Q15858 44-1988; A5A6L6 19-218; O60939 30-215; Q2KI11 23-215); test: FACS, transiently transfected HEK293T cells
# T2 construct: DII, DIII, DIV from Nav1.7α, DI from Nav1.5α; also called huNav157 chimera 4
# Method: as §1, §2
# huNav157chim7 + β1-β2-β3 = target: T3, huNav157chim7 + β1-β2-β3 (human); test: FACS, transiently transfected HEK293T cells
# T3 construct: DI, DIII, DIV from Nav1.5α, DII from Nav1.7α; also called huNav157 chimera 7
# Method: as §1, §2
# huNav157chim1 + β1-β2-β3 = target: T4, huNav157chim1 + β1-β2-β3 (human, UniProt Q15858 1-1962; A5A6L6 19-218; O60939 30-215; Q2KI11 23-215); test: FACS, transiently transfected HEK293T cells
# T4 construct: DI, DII, DIII from Nav1.7α, DIV from Nav1.5α; fused by P2A to β1-β2-β3; also called huNav157 chimera 1
# Method: as §1, §2
# [1] = target: T5, huNav157chim12 + β1-β2-β3 (human, UniProt Q15858 1-1988; A5A6L6 19-218; O60939 30-215; Q2KI11 23-215); test: FACS, transiently transfected HEK293T cells
# T5 construct: DI S5-S6 from Nav1.5α, rest Nav1.7α; also called huNav157 chimera 12
# Method: as §1, §2
# huNav157chim6 + β1-β2-β3 = target: T6, huNav157chim6 + β1-β2-β3 (human); test: FACS, transiently transfected HEK293T cells
# T6 construct: DI, DII, DIV from Nav1.5α, DIII from Nav1.7α; also called huNav157 chimera 6
# Method: as §1, §2
# huNav1.7α + β1-β2-β3 [2] = target: T7, huNav1.7α + β1-β2-β3 (human, UniProt Q15858 1-1988; A5A6L6 19-218; O60939 30-215; Q2KI11 23-215); test: competition FACS, HEK FlpIn cells, vs EC30 of CMYC3-F0103265B04
# T7 construct: Cell line (CHO FlpIn, HEK FlpIn, transient HEK293T) is named under assay; also called huNav1.7-beta1-beta2-beta3; human Nav1.7α with Navβ1, Navβ2 and Navβ3
# Method in brief: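 HEK FlpIn cells expressing huNav1.7α+β1-β2-β3 (1×10⁵/well) were incubated 1.5 h at 4 °C with a dilution series of purified ISVD plus CMYC3-tagged F0103265B04 at EC30-equivalent concentration in PBS, 2% FBS, 0.05% NaN₃. Flow cytometry read-out with 5 nM TOPRO3 to exclude dead cells.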
# [3] = target: T8, huNav1.7α(V331M) + β1-β2-β3 (human); test: binding FACS, CHO FlpIn cells
# T8 construct: polyprotein as encoded; the entry already carries V331M; also called huNav1.7(V331M)-beta1-beta2-beta3
# Method in brief: (§3)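 Flow cytometry binding assay on stable CHO FlpIn cell lines expressing Nav1.7α (human wild type, single DI S5-S6 point variants, or rhesus) with β1-β2-β3. Cells in FACS buffer (PBS, 10% FBS, NaN₃) were plated at 1×10^5 cells/well in 96-well V-bottom plates. FLAG3-tagged ISVDs were added for 30 minutes at 4° C and detected with murine anti-Flag. Dead cells were excluded using 1 μg/mL propidium iodide, and EC50 was determined.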
# [4] = target: T9, huNav1.7α(R277Q) + β1-β2-β3 (human); test: binding FACS, CHO FlpIn cells
# T9 construct: polyprotein as encoded; the entry already carries R277Q; also called huNav1.7(R277Q)-beta1-beta2-beta3
# Method in brief: as §3
# huNav1.7α + β1-β2-β3 [5] = target: T7, huNav1.7α + β1-β2-β3; test: binding FACS, CHO FlpIn cells
# Method in brief: as §3
# [6] = target: T10, huNav1.7α(E281V) + β1-β2-β3 (human); test: binding FACS, CHO FlpIn cells
# T10 construct: polyprotein as encoded; the entry already carries E281V; also called huNav1.7(E281V)-beta1-beta2-beta3
# Method in brief: as §3
# [7] = target: T11, huNav1.7α(F276V) + β1-β2-β3 (human, UniProt Q15858 1-1988; A5A6L6 19-218; O60939 30-215; Q2KI11 23-215); test: binding FACS, CHO FlpIn cells
# T11 construct: polyprotein as encoded, P2A sites liberate the subunits; the entry already carries F276V; also called huNav1.7(F276V)-beta1-beta2-beta3
# Method in brief: as §3
binder,measurement,setting,value
B1,binding result,huNav157chim5 + β1-β2-β3,no binding (tested: 1 µM)
same,binding result,huNav157chim4 + β1-β2-β3,no binding (tested: 1 µM)
same,binding result,huNav157chim7 + β1-β2-β3,no binding (tested: 1 µM)
same,binding result,huNav157chim1 + β1-β2-β3,no binding (tested: 1 µM)
same,binding result,[1],no binding (tested: 1 µM)
same,binding result,huNav157chim6 + β1-β2-β3,no binding (tested: 1 µM)
same,IC50,huNav1.7α + β1-β2-β3 [2],98 nM
same,EC50,[3],21 nM
same,EC50,[4],25 nM
same,EC50,huNav1.7α + β1-β2-β3 [5],30 nM
same,EC50,[6],24 nM
same,EC50,[7],26 nM
